Results from article PMC8229658 (Viruses, 2021).

Biological target: T1, Flag-tagged human RuvBL2 (recombinant) (human, UniProt Q9Y230 1-463)
T1 construct: also called Flag-RuvBL2
Assay: pull-down
Conditions: both partners purified

T1 sequence (Q9Y230 whole entry): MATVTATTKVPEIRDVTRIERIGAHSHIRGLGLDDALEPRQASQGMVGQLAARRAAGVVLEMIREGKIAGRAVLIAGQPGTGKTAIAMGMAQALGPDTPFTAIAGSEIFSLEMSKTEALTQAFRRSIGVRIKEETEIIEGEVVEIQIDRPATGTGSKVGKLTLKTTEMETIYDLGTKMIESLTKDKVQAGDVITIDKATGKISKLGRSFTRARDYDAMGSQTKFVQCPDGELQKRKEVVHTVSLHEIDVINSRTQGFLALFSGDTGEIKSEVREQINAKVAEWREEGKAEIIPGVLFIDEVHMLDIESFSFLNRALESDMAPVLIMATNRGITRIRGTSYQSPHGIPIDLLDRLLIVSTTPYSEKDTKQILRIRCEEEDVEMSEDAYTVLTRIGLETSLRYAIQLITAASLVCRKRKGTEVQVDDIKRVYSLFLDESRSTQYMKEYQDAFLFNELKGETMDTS

B1: GST-tagged RBD (amino acids 1-73) of the NS1 of PR8 virus (domain or fragment)
chain: MDPNTVSSFQVDCFLWHVRKRVADQELGDAPFLDRLRRDQKSLRGRGSTLGLDIETATRAGKQIVERILKEES
notes: also called GST-RBD
  binding result: binds
